In patent publication US20080160008:

What was measured:
[1] = target: Aβ1-42 (fresh, nonaggregated synthetic peptide, rPeptide) (UniProt P05067)
protofibrillar Aβ1-42 = protofibrillar Aβ1-42 (UniProt P05067)
[2] = target: high-molecular-weight (MW) Aβ assemblies (UniProt P05067)
fibrillar Aβ1-42 = fibrillar Aβ1-42 (UniProt P05067)
Aβ1-40 = Aβ1-40 (UniProt P05067)
Aβ1-38 = Aβ1-38 (UniProt P05067)
Chain of Aβ1-38 (P05067 whole entry, looked up, tested part not stated): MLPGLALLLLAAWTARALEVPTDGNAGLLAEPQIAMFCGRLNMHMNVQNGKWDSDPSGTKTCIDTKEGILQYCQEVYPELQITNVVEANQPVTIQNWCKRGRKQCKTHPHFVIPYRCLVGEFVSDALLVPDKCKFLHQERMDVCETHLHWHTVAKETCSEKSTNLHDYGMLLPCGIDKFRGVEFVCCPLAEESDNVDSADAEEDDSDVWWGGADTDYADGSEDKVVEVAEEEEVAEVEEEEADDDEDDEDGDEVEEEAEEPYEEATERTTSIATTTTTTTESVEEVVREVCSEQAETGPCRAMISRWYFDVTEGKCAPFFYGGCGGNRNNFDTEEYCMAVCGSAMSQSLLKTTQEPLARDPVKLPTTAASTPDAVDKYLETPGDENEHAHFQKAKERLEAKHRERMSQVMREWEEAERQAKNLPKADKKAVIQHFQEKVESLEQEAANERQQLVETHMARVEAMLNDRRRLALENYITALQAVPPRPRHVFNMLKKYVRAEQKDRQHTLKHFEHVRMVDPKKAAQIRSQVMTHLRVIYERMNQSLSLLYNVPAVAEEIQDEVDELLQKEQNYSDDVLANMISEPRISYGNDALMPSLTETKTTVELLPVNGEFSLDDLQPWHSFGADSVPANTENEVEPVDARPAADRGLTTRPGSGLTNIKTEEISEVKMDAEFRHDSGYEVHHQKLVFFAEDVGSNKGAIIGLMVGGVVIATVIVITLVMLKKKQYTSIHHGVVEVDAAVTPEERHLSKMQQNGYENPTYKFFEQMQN

Chain of Aβ1-42 (fresh, nonaggregated synthetic peptide, rPeptide) (P05067 whole entry, looked up, tested part not stated): as above
Chain of protofibrillar Aβ1-42 (P05067 whole entry, looked up, tested part not stated): as above
Chain of fibrillar Aβ1-42 (P05067 whole entry, looked up, tested part not stated): as above
Chain of high-molecular-weight (MW) Aβ assemblies (P05067 whole entry, looked up): as the sequence (P05067 whole entry, looked up, tested part not stated) above
Chain of Aβ1-40 (P05067 whole entry, looked up, tested part not stated): as above

purified CatB from human liver (Sigma)
SELDI-TOF mass spectrometry of cleavage at pH 7.0 [1]: At neutral pH (˜7.0), the ability of CatB to cleave Aβ, especially nonaggregated (fresh) Aβ, was markedly reduced
proteolytic products analyzed with SELDI-TOF mass spectrometry [1]: Incubating Aβ1-42 with CatB resulted in the dose-dependent generation of Aβ1-40, Aβ1-38, and Aβ1-33 through proteolytic cleavage at Val40-Ile41, Gly38-Gly39, and Gly33-Leu34
western blot analysis of acid-urea gels [1]: The dose-dependent cleavage of Aβ1-42 was confirmed by western blot analysis of acid-urea gels
western blot of Tricine SDS-PAGE gels [1]: Levels of low-MW Aβ1-42 oligomers and monomers, detected with an antibody specific for Aβ1-42, were also reduced
SELDI-TOF mass spectrometry of cleavage at pH 6.0 (protofibrillar Aβ1-42): at pH 6.0, were cleaved by CatB as efficiently as nonaggregated preparations, resulting in the same C-terminally-truncated peptides, Aβ1-40, Aβ1-38, and Aβ1-33
SELDI-TOF mass spectrometry of cleavage at pH 7.0 (protofibrillar Aβ1-42): protofibrillar/nonfibrillar Aβ oligomers and fibrillar Aβ1-42 preparations were cleaved by CatB even at neutral pH, resulting in the same truncated Aβ species observed at pH 6.0
western blot of Tricine SDS-PAGE gels [2]: Incubation of CatB induced a marked decrease in the amounts of high-molecular-weight (MW) Aβ assemblies
SELDI-TOF mass spectrometry of cleavage at pH 7.0 (fibrillar Aβ1-42): protofibrillar/nonfibrillar Aβ oligomers and fibrillar Aβ1-42 preparations were cleaved by CatB even at neutral pH, resulting in the same truncated Aβ species observed at pH 6.0
amount of fibrillar structures by electron microscopy (fibrillar Aβ1-42): incubation of fibrillar Aβ1-42 with CatB did reduce the amount of fibrillar structures
proteolytic products analyzed with SELDI-TOF mass spectrometry (Aβ1-40): Levels of Aβ1-40 were increased initially at lower doses (100-400 ng/ml), but decreased at higher doses (0.4-2.5 µg/ml)
proteolytic products analyzed with SELDI-TOF mass spectrometry (Aβ1-38): even when Aβ1-40 was almost completely converted to Aβ1-38, no Aβ1-36 was generated from Aβ1-38
